Data taken from patent publication US20160304573A1, “FIBROMODULIN PEPTIDE” (The Regents of the University of California, priority 2010, published 2016).

Key:
TGF-β1 [1] = molecular target: T1, TGF-β1 (Homo sapiens, UniProt P01137); test: ELISA analysis of binding with TGF-β1; conditions: BSA as negative control; FIG. 3
Source text: Bovine serum albumin (BSA) was used as negative control.
SUMO-CAT from the recombinant bacteria harboring control plasmid pET_SUMO/CAT was used as negative control. To the knowledge of inventors, the TGF-binding sites within FMOD have not been reported.

TGF-β1 [2] = molecular target: T1, TGF-β1; test: TGF-β1 binding to biotinylated FMOD/FMOD peptides on avidin resin; non-bound TGF-β read by Mv1Lu growth inhibition (MTT); conditions: ratios 1:1, 10:1, 100:1, 1000:1 to TGF-β; overnight 4° C.; FIG. 13
Method: (§1) FMOD (whole protein) (SEQ ID NO:1), FMOD peptides and control protein BSA were biotinylated. While, the biotinylated proteins and peptides were bound to commercial available Piece Monomeric Avidin UltraLink Resin (Piece). The amounts of each test peptides/proteins are 1:1, 10:1, 100:1 and 1000:1 to TGF-βs, respectively. After washing out the non-bound residues, appropriate amount TGF-βs (based on the primary test assay) were added to the resin at 4° C. After overnight binding, non-bound TGF-βs were collected, followed by filter sterilization. Then, the TGF-βs residue were diluted 100 times in DEME-0.5% FBS to ensure the concentration was located in the linear region of TGF-βs on Mv1Lu proliferate inhibition.
(§2) Diluted TGF-βs was added to overnight serum-starved Mv1Lu, and fresh TGF-βs media were added for another 24 hour before MTT assay. Samples with no TGF-βs added were employed as controls.

[3] = system: Rat-2 (rat fibroblast cell line) cells; test: Rat-2 cell proliferation, Click-iT Microplate Assay; format: cell-based; conditions: FMOD combined with 100 pM TGF-β1, 48 hours; FIG. 16
Method: 2000 cell/well passage 18 Rat-2 (rat fibroblast cell line) cells were seeded in 96-well plates with 200 μl DMEM-10% FBS for 6 hours, followed by overnight serum starving with 200 μl DMEM-0.5% FBS. 200 μl treatment medium, DMEM-0.5% FBS harboring different concentration of FMOD (SEQ ID NO:1), FMOD-F07-C40 peptide with/without 100 pM TGF-βI (SEQ ID NO:64), was added to the well and refreshed on the second day. After 48 hours treatment, proliferation of Rat-2 cells was evaluated by Click-iT® Microplate Assay (Invitrogen).

[4] = system: connective tissue growth factor (CTGF) expression; test: CTGF expression and cell aggregation in Rat-2 cells, confocal staining; format: cell-based; conditions: for CTGF expression: 48 h
Method: Results of exemplary tests on each of FMOD and FMOD-P, alone or in combination with TGF-β on CTGF expression are shown in FIGS. 28A-28D. In these tests, 4,000 cells/well passage 18 Rat-2 cells were seeded in 8-well chamber slices in DMEM medium with 10% FBS. After 6 h adhesion, fresh DMEM medium with 0.5% FBS was employed for overnight serum starvation and then treatment media added. Treatment media were changed after 24 h. Cells were fixed and staining at 48 h. Photos were captured at 630× magnifications using a confocal microscope. In these figures, the cells were stained for CTGF (connective tissue growth factor, a factor involved in cell proliferation, migration and matrix production) or DAPI (4′,6-diamidino-2-phenylindole a fluorescent stain that binds strongly to DNA-used for nuclear staining). Merged images showing both CTGF and DAPI staining are also shown.

TGF-β3 = molecular target: T2, TGF-β3 (Homo sapiens, UniProt P10600); test: TGF-β3 binding to biotinylated FMOD/FMOD peptides on avidin resin; non-bound TGF-β read by Mv1Lu growth inhibition (MTT)
T2 sequence (P10600 301-412 limits assumed): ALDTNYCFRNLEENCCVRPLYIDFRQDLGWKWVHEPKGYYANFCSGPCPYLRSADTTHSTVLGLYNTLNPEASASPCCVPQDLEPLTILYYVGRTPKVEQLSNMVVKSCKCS
Method: as §1, §2

Rat-2 cells = test: Rat-2 cell migration by scratching method; format: cell-based
Method: 1×10^6 cell/well Rat-2 cells were seeded in 6-well plated with 3 ml DMEM-10% FBS. After 6 hours for adhesion, fresh DMEM-0.5% FBS medium was changed for serum-starving overnight. After pre-warmed DMEM rinsing, four wounds (each 1 mm wide; two horizontal and two vertical) were scratched employing a 1-ml tip for each treatment group. Cells were rinsed by DMEM for three times, followed by incubation with treatment medium [DMEM-0.5 FBS containing 100 pM (2.5 ng/ml) TGF-β1 (SEQ ID NO:64) or -β3 (SEQ ID NO:66) w/o 200 nM (11.2 μg/ml) FMOD (SEQ ID NO:1)] for 24 hours. Photos were captured at both 0-h and 24-h after the scratching. The unclosed distance was measured and quantified as an average gap (A) and migration index (B). Similar results were reproduced in four independent experiments. The scale bar in (A) equal to 100 The asterisks in (B) present P<0.05.
Similar to FMOD (whole protein), the effect of FMOD peptides and/or TGF-β on cell migration was also evaluated by scratching method (FIGS. 18C and 25D). At the same time, cell migration/invasion in Matrigel was documented at 100× magnificent after 24 hour treatment and quantitated using DAPI nuclear staining (100 rather than 200× magnification was used because one group's invasion is quite low) (see the results in FIG. 20A and DAPI pictures in FIG. 20B). Passage 18 Rat-2 cells (20,000 cells/well) were used for the test under the treatment of 100 pM TGF-β1 (SEQ ID NO:64)/133 (SEQ ID NO:66) with/without 200 nM FMOD-F07-40C in DMEM-0.5% FBS.

TGF-β2 = molecular target: T3, TGF-β2 (Homo sapiens, UniProt P61812); test: TGF-β2 binding to biotinylated FMOD/FMOD peptides on avidin resin; non-bound TGF-β read by Mv1Lu growth inhibition (MTT); conditions: ratios 1:1, 10:1, 100:1, 1000:1 to TGF-β; FIG. 14
T3 sequence (P61812 303-414 limits assumed): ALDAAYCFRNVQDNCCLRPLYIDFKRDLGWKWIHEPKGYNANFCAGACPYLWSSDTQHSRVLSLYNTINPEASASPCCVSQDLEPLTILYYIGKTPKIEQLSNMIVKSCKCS
Method: as §1, §2

Rat-2 fibroblasts = test: Z-axes series sequential images, relative height of nodules; format: cell-based; conditions: FMOD and TGF-β1 treatment
Source text: But for the nodules formed with FMOD and TGF-β1 treatment (yellow arrows), the cells were stacked on top of one another to a height of about 48 μm.

T1 sequence (P01137 279-390 limits assumed): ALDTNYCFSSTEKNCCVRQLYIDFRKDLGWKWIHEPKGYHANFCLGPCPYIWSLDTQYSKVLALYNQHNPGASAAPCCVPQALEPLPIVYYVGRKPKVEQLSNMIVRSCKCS

B1: FMOD: recombinant human fibromodulin whole protein (SEQ ID NO:1) produced in CHO-K1 (protein, listed as Homo sapiens)
chain: MQWTSLLLLAGLFSLSQAQYEDDPHWWFHYLRSQQSTYYDPYDPYPYETYEPYPYGVDEGPAYTYGSPSPPDPRDCPQECDCPPNFPTAMYCDNRNLKYLPFVPSRMKYVYFQNNQITSIQEGVFDNATGLLWIALHGNQITSDKVGRKVFSKLRHLERLYLDHNNLTRMPGPLPRSLRELHLDHNQISRVPNNALEGLENLTALYLQHNEIQEVGSSMRGLRSLILLDLSYNHLRKVPDGLPSALEQLYMEHNNVYTVPDSYFRGAPKLLYVRLSHNSLTNNGLASNTFNSSSLLELDLSYNQLQKIPPVNTNLENLYLQGNRINEFSISSFCTVVDVVNFSKLQVLRLDGNEIKRSAMPADAPLCLRLASLIEI
binding with TGF-β1 in ELISA assay (TGF-β1 [1]): able to bind with TGF-β1 | TGF-β1 binding (TGF-β1 [2]): TGF-β1 binding that also increased with higher FMOD protein ratios | fibroblast proliferation [3]: significantly increased fibroblast proliferation | cell aggregation ([4]; 100 pM TGF-β1+200 nM FMOD): significant cell aggregation | CTGF expression ([4]; 100 pM TGF-β1+200 nM FMOD, FIG. 21D): significantly higher CTGF expression | cell morphology ([4]; 200 nM FMOD alone, compared to the control group): more flat and spread out when compared to the control group | CTGF expression (green fluorescence) ([4]; TGF-β1/FMOD combo-treatment relative to TGF-β1 mono-treatment, FIG. 24): significantly increases expression of CTGF | cell morphology ([4]; TGF-β1/FMOD combo-treatment, FIG. 24): much more densely packed, aggregated cells with a significant degree of nodule formation | CTGF expression ([4]; mono-treatment (200 nM FMOD or 100 pM TGF-β1), FIGS. 21B, 21C): Minimal CTGF expression | rank order of binding to TGF-β isoforms (TGF-β3; comparison of FIGS. 13-15): TGF-β1>TGF-β2>TGF-β3 | TGF-β3 binding (TGF-β3; ratios 1:1, 10:1, 100:1, 1000:1 to TGF-β, FIG. 15): TGF-β3 binding that also expectedly increased with higher FMOD protein ratios up to 1:100 | cell migration, scratch (Rat-2 cells; 200 nM combined with 100 pM TGF-β1, 24 hours): induced significant migration | cell migration, scratch (Rat-2 cells; 200 nM combined with 100 pM TGF-β3, 24 hours): decreased TGF-β3 mediated inhibition of migration | cell migration, scratch (Rat-2 cells; alone (200 nM FMOD or 100 pM TGF-β), 24 hours): induced Rat-2 minimal migration | TGF-β2 binding (TGF-β2): TGF-β2 binding that also expectedly increased with higher FMOD protein ratios | height of stacked cells in nodules (Rat-2 fibroblasts): about 48 μm
